What was measured:
[1] = molecular target: Dengue virus serotype 2 (ET300 strain) non-structural protein 1, C-terminally His-tagged, purified (Dengue virus serotype 2, strain ET300); assay: SEC; purified His-tagged NS1, 0.5 mL on Superdex 200 increase 10/300 GL in PBS; fractions analysed by NS1 ELISA
[2] = molecular target: Dengue virus serotype 2 (ET300 strain) non-structural protein 1, untagged recombinant, expressed in suspension HEK293 cells (Dengue virus serotype 2, strain ET300); assay: SEC; concentrated (about 10-fold, 520 μg/mL) NS1 expression medium, 0.5 mL on Superdex 200 increase 10/300 GL in PBS at 0.75 mL per min; NS1 in 0.25 mL fractions by ELISA and immunoblot

Row | Substance | stoichiometry N [1] | stoichiometry N [2]
1 | Dengue virus serotype 2 (ET300 strain) non-structural protein 1, C-terminally His-tagged, purified (natural protein) | 6 | 
2 | Dengue virus serotype 2 (ET300 strain) non-structural protein 1, untagged recombinant, expressed in suspension HEK293 cells (natural protein) |  | 6

— article PMC12622831
